# Data reported in US20210300992A1 (Stanford University, published 2021).
# Positions count from the first letter of the chain named. Names may count otherwise.
# B1: wild-type human LIFR displayed on the surface of yeast (receptor)
# chain: QKKGAPHDLKCVTNNLQVWNCSWKAPSGTGRGTDYEVCIENRSRSCYQLEKTSIKIPALSHGDYEITINSLHDFGSSTSKFTLNEQNVSLIPDTPEILNLSADFSTSTLYLKWNDRGSVFPHRSNVIWEIKVLRKESMELVKLVTHNTTLNGKDTLHHWSWASDMPLECAIHFVEIRCYIDNLHFSGLEEWSDWSPVKNISWIPDSQTKVFPQDKVILVGSDITFCCVSQEKVLSALIGHTNCPLIHLDGENVAIKIRNISVSASSGTNVVFTTEDNIFGTVIFAGYPPDTPQQLNCETHDLKEIICSWNPGRVTALVGPRATSYTLVESFSGKYVRLKRAEAPTNESYQLLFQMLPNQEIYNFTLNAHNPLGRSQSTILVNITEKVYPHTPTSFKVKDINSTAVKLSWHLPGNFAKINFLCEIEIKKSNSVQEQRNVTIKGVENSSYLVALDKLNPYTLYTFRIRCSTETFWKWSKWSNKKQHLTTEAS
# notes: also called LIFR wild-type (WT); wild-type LIFR
# B2: LIFR CBMI-Ig-like-CBMII wild-type Fc fusion homodimer (Fc fusion)
# chain: B1 chain
# notes: Homodimer through the Fc; The engineered counterparts use a 3x GS linker and a human IgG1 Fc; also called LIFR-WT-Fc; LIFR WT Fc; not shown: linker and Fc domain
# B3: PSVID (receptor)
# yeast-displayed receptor fragment: B1 chain with L218P, N242S, I260V, T273I, N277D
# notes: 5 mutations, all marked
# B4: VPSID (receptor)
# yeast-displayed receptor fragment: B1 chain with I217V, L218P, N242S, T273I, N277D
# notes: 5 mutations, all marked
# B5: PAID (receptor)
# yeast-displayed receptor fragment: B1 chain with L218P, V262A, T273I, N277D
# notes: 4 mutations, all marked
# B6: PRVAID (receptor)
# yeast-displayed receptor fragment: B1 chain with L218P, H240R, I257V, V262A, T273I, N277D
# B7: PVAID (receptor)
# yeast-displayed receptor fragment: B1 chain with L218P, I257V, V262A, T273I, N277D
# notes: 5 mutations, all marked
# B8: PID (receptor)
# yeast-displayed receptor fragment: B1 chain with L218P, I260V, T273I, N277D
# B9: VPDAID (receptor)
# yeast-displayed receptor fragment: B1 chain with I217V, L218P, N242D, V262A, T273I, N277D
# notes: 6 mutations, all marked
# B10: human leukemia inhibitory factor (LIF), soluble (ligand)
# chain: not shown
# notes: also called human LIF; soluble human LIF
# B11: LIFR CBMI-Ig-like-CBMII (VPRVVAID)-gp130 CBM (ELDME) heterodimeric Fc fusion (Fc fusion)
# chain 1: QKKGAPHDLKCVTNNLQVWNCSWKAPSGTGRGTDYEVCIENRSRSCYQLEKTSIKIPALSHGDYEITINSLHDFGSSTSKFTLNEQNVSLIPDTPEILNLSADFSTSTLYLKWNDRGSVFPHRSNVIWEIKVLRKESMELVKLVTHNTTLNGKDTLHHWSWASDMPLECAIHFVEIRCYIDNLHFSGLEEWSDWSPVKNISWIPDSQTKVFPQDKVVPVGSDITFCCVSQEKVLSALIGRTDCPLIHLDGENVAIKVRNVSASASSGTNVVFITEDDIFGTVIFAGYPPDTPQQLNCETHDLKEIICSWNPGRVTALVGPRATSYTLVESFSGKYVRLKRAEAPTNESYQLLFQMLPNQEIYNFTLNAHNPLGRSQSTILVNITEKVYPHTPTSFKVKDINSTAVKLSWHLPGNFAKINFLCEIEIKKSNSVQEQRNVTIKGVENSSYLVALDKLNPYTLYTFRIRCSTETFWKWSKWSNKKQHLTTEASGSGSGSDKTHTCPPCPAPELLGGPSVFLFPPKPKDTLMISRTPEVTCVVVDVSHEDPQVKFNWYVDGVQVHNAKTKPREQQYNSTYRVVSVLTVLHQNWLDGKEYKCKVSNKALPAPIEKTISKAKGQPREPQVYTLPPSREEMTKNQVSLWCLVKGFYPSDIAVEWESNGQPENNYKTTPPVLDSDGSFFLYSKLTVDKSRWQQGNVFSCSVMHEALHNHYTQKSLSLSPGK
# chain 2: LPPEKPKNLSCIVNEGKKMRCEWDRGRETHLETNFTLKSEWATHELADCKAKRDTPTSCTVDYSTVYFVNIEVWVEAENALGKVTSDHINFDPVDKVKPNPPHNLSVINSEELSSILKLTWTNPSIKSVMILKYNIQYRTKDASTWSQIPPEDTASTRSSFTVQDLKPFTEYVFRIRCMKEDGEGYWSDWSEEASGITYEDGSGSGSDKTHTCPPCPAPELLGGPSVFLFPPKPKDTLMISRTPEVTCVVVDVSHEDPQVKFNWYVDGVQVHNAKTKPREQQYNSTYRVVSVLTVLHQNWLDGKEYKCKVSNKALPAPIEKTISKAKGQPREPQVYTLPPSREEMTKNQVSLSCAVKGFYPSDIAVEWESNGQPENNYKTTPPVLDSDGSFFLVSKLTVDKSRWQQGNVFSCSVMHEALHNHYTQKSLSLSPGK
# notes: also called LIFR-gp130 heterodimeric Fc; LIFR-gp130 Heterodimeric Fc (Eng.)
# B12: wild-type human gp130 CBM domain displayed on the surface of yeast (receptor)
# chain: LPPEKPKNLSCIVNEGKKMRCEWDRGRETHLETNFTLKSEWATHKFADCKAKRDTPTSCTVDYSTVYFVNIEVWVEAENALGKVTSDHINFDPVYKVKPNPPHNLSVINSEELSSILKLTWTNPSIKSVIILKYNIQYRTKDASTWSQIPPEDTASTRSSFTVQDLKPFTEYVFRIRCMKEDGKGYWSDWSEEASGITYED
# notes: also called gp130 wild-type (WT); wild-type gp130
# B13: EDE (receptor)
# yeast-displayed receptor fragment: B12 chain with K45E, Y95D, K184E
# notes: 3 mutations, all marked
# B14: ELRDM (receptor)
# yeast-displayed receptor fragment: B12 chain with K45E, F46L, K83R, Y95D, I130M
# notes: 5 mutations, all marked
# B15: ELDSM (receptor)
# yeast-displayed receptor fragment: B12 chain with K45E, F46L, Y95D, N100S, I130M
# notes: 5 mutations, all marked
# B16: 8M (receptor)
# yeast-displayed receptor fragment: B12 chain with E4K, K5R, N14D, K45E, F46L, K83R, Y95D, N100S
# notes: 8 mutations, all marked; also called 8M (Rnd 1); E4K-K5R-N14D-K45E-F46L-K83R-Y95D-N100S
# Assays:
# [1] = biological target: B10; assay: yeast surface display, flow cytometry; score from summed fluorescence at 10 pM and 100 pM human LIF, normalized to wild-type and to expression
# [2] = biological target: B10; assay: yeast surface display, flow cytometry; soluble human LIF titrated (0.001 to 100 nM), detected with a fluorescent antibody
# Description: (§1) Binding to human LIF was measured via fluorescent antibody detection using flow cytometry.
# Results for LIFR wild-type (WT) (circles), the “PDD” variant (L218P-N42D-N277D) (squares), and the […] variant (mutations in FIG. 4, panel A) (triangles) are shown.
# [3] = biological target: B10; assay: KinExA with soluble human LIF; inhibitor titrated
# Description: (§2) Binding of the purified LIF inhibitors to soluble LIF was tested using KinExA. Shown in FIG. 10 are binding results for: (1) a homodimer having a WT LIFR CBMI-Ig-like-CBMII Fc fusion as each monomer; (2) a homodimer having LIFR […] Fc as each monomer;
# [4] = biological target: B2; assay: KinExA with soluble human LIF; KD calculated by the KinExA software
# Description: as §2
# [5] = biological target: B12; assay: yeast-displayed receptor, no LIF added, anti-Fc detection by flow cytometry
# [6] = biological target: B1; assay: as above
# [7] = biological target: B10; assay: yeast surface display, flow cytometry; Score column of the table of sorted gp130 CBM variants (the filing gives 100 pM and 1 nM human LIF for the gp130 binding scores)
# [8] = biological target: B10; assay: yeast surface display, flow cytometry; soluble human LIF titrated (0.01 to 1000 nM), detected with a fluorescent antibody
# Description: as §1
# Results for gp130 wild-type (WT) (circles), the “8M” variant (E4K-K5R-N14D-K45E-F46L-K83R-Y95D-N100S) (squares), and the ELDME variant (mutations in FIG. 4, panel A) (triangles) are shown.
Binder,Score (normalized binding score) [1],Score (binding score) [7],further results
B1,1.32,,EC50 (read off the curve) [2]: ~1 nM
B2,,,EC50 (read off the curve) [3]: ~1000 pM
B3,13.4,,
B4,13.2,,
B5,13.3,,
B6,16.9,,
B7,15.6,,
B8,12.2,,
B9,14.4,,
B10,,,Kd [4]: 1.09 nM
B11,,,binding result [5]: no binding; binding result [6]: no binding
B12,,1.03,
B13,,23,
B14,,22.1,
B15,,21.9,
B16,,16,EC50 (read off the curve) [8]: ~10 nM
